In PMC6474348:

Columns and labels:
[1] = molecular target: maltose binding protein (MBP)-batVP35 (Myotis lucifigus); assay: SEC-MALS
[2] = molecular target: eVP35 IID (MBP-eVP35 215-240 as printed) (Ebola virus, UniProt Q05127 215-340); assay: filter binding

## maltose binding protein (MBP)-batVP35 (natural protein)
[1]
  stoichiometry N: 4

B1: 8 bp dsRNA (dsRNA)
RNA 1: CGCAUGCG
RNA 2: CGCAUGCG
[2]
  binding signal: 1 fraction relative to eVP35
